Data from US10561711B2, “Rapid action insulin formulations and pharmaceutical delivery systems” (Thermalin Inc., priority 2014, dated 2020).
Where two headings read alike, the source gives them in different places.

Assay: Migration through porcine skin tissue under electric field (modified Franz apparatus)
Protocol: The effect of an electric field was explored on migration through the subcutis using fresh porcine abdominal skin tissue obtained from local abattoirs. To do this, a modified Franz apparatus was developed that could test up to 12 samples simultaneously (FIGS. 12A, 12B). Full-thickness porcine skin tissue plugs that were three cm in diameter were placed subcutis-down in individual wells over reservoirs containing cathodes below 2 ml of test solution. The device was then inverted to run the experiments.
Tissue and test solution were maintained at 37° C. using a heat lamp and monitored with a digital thermometer probe placed between the plexiglass plates, adjacent to the tissues. Anodes were inserted into conductive paste placed on the epidermal surface. Utilizing multiple electrophoresis power sources, 10V or 20V of electromotive potential was then run across each cathode-anode pair for one hour.
We tested the apparatus using a solution of bromophenol blue (BPB), a 0.67 kDa dye that appears blue above pH 4.6 and carries a negative charge near neutral pH similar to that of insulin. […]
One microscope slide was stained with H&E; an adjacent slide was stained with a Guinea pig polyclonal antibody (Ab) (Abcam ab7842), which was detected by a goat anti-Guinea pig polyclonal IgG H&L (Alexa Fluor® 594; Abcam ab150188).

Compound	migration through porcine skin layers with voltage applied	migration through porcine skin layers with voltage applied (10 V, 37° C., about one hour, test solution on subcutaneous surface)
Cy5-insulin: human insulin conjugated to cyanine-5-NHS-ester fluorophore (P/N IS1-S5-1, Nanocs, Inc.)	migration of the fluorescence-tagged insulin through the full skin thickness	–
O=S1(=O)OC(c2cc(Br)c(O)c(Br)c2)(c2cc(Br)c(O)c(Br)c2)c2ccccc21 [bromophenol blue]	–	dye penetrated through the subcutis in voltage-treated tissue
